Legend:
CT26 cells [1] = test: ROS detection with DCFH-DA; assay type: cell-based, mouse; settings: CT26, 5 μM, 1 h, 660 nm laser 1 min 0.02 W/cm^2, confocal laser scanning microscopy
Protocol: (§1) For cell endocytosis detection, CT26 and HCT116 cells were treated with Ce6 molecules (5 μM) or Ce6-GFFY (5 μM) at 37 °C for 1 h. For ROS detection, cells were treated with Ce6 molecules (5 μM), GFFY peptide (5 μM), or Ce6-GFFY (5 μM) at 37 °C for 1 h and then treated with or without laser irradiation for 1 min (660 nm, 0.02 W/cm^2). Afterward, the cells were collected and stained with DCFH-DA (1:5000) at 37 °C for 20 min. For cell death analysis, cells were treated with Ce6 molecules, GFFY peptide, or Ce6-GFFY (CT26, 10 μM; HCT116, 5 μM) at 37 °C for 1 h and then treated with or without laser irradiation for 1 min (660 nm, 0.02 W/cm^2). After incubation at 37 °C for 24 h, the cells were collected and stained with propidium iodide (1:100) and annexin V-FITC (1:200). For examination of CRT expression, cells were treated with Ce6 molecules, GFFY peptide, or Ce6-GFFY (CT26, 10 μM; HCT116, 5 μM) at 37 °C for 1 h and then treated with or without laser irradiation for 1 min (660 nm, 0.02 W/cm^2). After incubation at 37 °C for 8 h, the cells were collected and blocked with 5% bull serum albumin for 10 min and then incubated with a primary anti-calreticulin antibody (#ab92516, Abcam), followed by the incubation of an Alexa Fluor 488-conjugated secondary antibody (#406416, BioLegend). […]

[2] = In vivo imaging, kinetics of Ce6 fluorescence in mice; parameters: species or system mouse
Protocol: (§2) For in vivo imaging, Ce6-GFFY (5 mg/kg) and Ce6 molecules (2.5 mg/kg) were injected into mice burdened with or without xenograft tumors through the tail vein (100 μL/mouse), and the fluorescence intensity of mice or main tissues such as brain, heart, liver, spleen, lung, kidney, intestine, and stomach was detected and analyzed with an IVIS spectrum imaging system (PerkinElmer, MA, USA). All animal experiments were approved by The Institutional Animal Care and Use Committee at Sun Yat-sen Cancer Center.

HCT116 cells [3] = test: ROS detection with DCFH-DA; assay type: cell-based, human; settings: HCT116, 5 μM, 1 h, 660 nm laser 1 min 0.02 W/cm^2, confocal laser scanning microscopy
Protocol: as §1

CT26-derived tumors = test: In vivo imaging, tumor targeting in mice bearing CT26-derived tumors; parameters: species or system mouse; settings: tail vein, 5 mg/kg, n = 3
Protocol: as §2

CT26 cells [4] = test: Cell endocytosis (uptake) detection by Ce6 fluorescence; assay type: cell-based, mouse; settings: CT26, 5 μM, 37 °C, 1 h
Protocol: as §1

[5] = Toxicity evaluation in mice (blood routine, liver and kidney function, H&E pathology); assay type: in vivo, mouse; settings: 5 mg/kg i.v. plus laser irradiation
Source text: Four-to-six-week-old BALB/c mice and BALB/c nude mice were purchased from Guangdong Medical Laboratory Animal Center (Guangzhou, China). All mice were maintained under standard conditions and treated according to institutional guidelines for animal care. For primary tumor therapy, 2 × 10^5 CT26 cells were suspended in a 1:1 mixture of PBS and matrigel and subcutaneously injected into the flanks of the mice. When the volume of tumors reached 70 mm^3, the mice were randomized into treatment and control groups. The treatment groups received tail intravenous injections of GFFY (2.5 mg/kg), Ce6 (2.5 mg/kg), or Ce6-GFFY (5 mg/kg), and the control group received PBS treatment, both groups were treated with once 660 nm laser irradiation for 8 min (1 min on, 1 min off; 4 cycles) on the tumor region at a power of 0.2 W/cm^2. Tumor volume and mouse body weight were recorded every three days, and tumor tissues were collected and weighed at the end of treatment. Main organs such as the heart, liver, spleen, lung, and kidney were collected for pathological analysis and the blood was collected for blood routine examination.

HCT116 cells [6] = test: CCK-8 assay; assay type: cell-based, human; settings: drug 1 h, 660 nm laser 1 min at 0.02 W/cm^2, then 24 h at 37 °C, read-out: IC50 (proliferation)
Protocol: (§3) Cell viability was measured using a CCK-8 cell counting kit (Beyotime Biotechnology, Shanghai, China). 7000 cells were seeded in 96-well plates and treated with drugs at various concentrations for 1 h and then treated with or without laser irradiation for 1 min (660 nm, 0.02 W/cm^2), followed by incubation at 37 °C for 24 h. After the addition of the CCK-8 reagent, the cells were continually incubated at 37 °C for 3 h before being detected by a microplate reader (TECAN, Victoria, Austria).

HCT116 cells [7] = test: Cell endocytosis (uptake) detection by Ce6 fluorescence; assay type: cell-based, human; settings: HCT116, 5 μM, 37 °C, 1 h
Protocol: as §1

CT26 cells [8] = test: CCK-8 assay; assay type: cell-based, mouse; settings: drug 1 h, 660 nm laser 1 min at 0.02 W/cm^2, then 24 h at 37 °C, read-out: IC50 (proliferation)
Protocol: as §3

[9] = confocal laser scanning microscopy, versus Ce6 molecules
[10] = flow cytometry, Ce6 fluorescence

time after injection by which almost cleared ([2]; mice, tail vein injection, 2.5 mg/kg, living imaging of Ce6 luminescence, n = 5)	half-life in mice ([2]; mice, tail vein injection, Ce6-GFFY 5 mg/kg, Ce6 2.5 mg/kg, from Ce6 luminescence changes, IVIS imaging, n = 5)	SMILES	ROS production upon 660 nm laser irradiation (CT26 cells [1])	ROS production upon 660 nm laser irradiation (HCT116 cells [3])	accumulation in tumor regions after injection (CT26-derived tumors; living imaging)	distribution in tumor and normal tissues after 24 h (CT26-derived tumors; organs and tumors imaged at 24 h)	cellular Ce6 fluorescence (CT26 cells [4]; [9])	cellular uptake (Ce6 positive cells) (CT26 cells [4]; [10])	retention time in the mice ([2]; mouse, in vivo, 5 mg/kg)	hepatic and renal function (AST, ALT, BUN) ([5]; end of treatment, n = 5)	murine blood routine analysis (inflammatory responses) ([5]; end of treatment, n = 5)	histopathological analysis of heart, liver, spleen, lung, and kidney (H&E) ([5]; n = 4)	IC50 (HCT116 cells [6])	cellular Ce6 fluorescence (HCT116 cells [7]; [9])	cellular uptake (Ce6 positive cells) (HCT116 cells [7]; [10])	IC50 (CT26 cells [8])
≤ 12 h	3 h	C=Cc1c(C)c2cc3nc(c(CC(=O)O)c4[nH]c(cc5nc(cc1[nH]2)C(C)=C5CC)c(C)c4C(=O)O)[C@@H](CCC(=O)O)[C@@H]3C [Ce6, chlorin e6]	minimal	minimal	–	–	–	–	–	–	–	–	–	–	–	–
–	–	C=Cc1c(C)c2cc3nc(c(CC(=O)NCC(=O)N[C@@H](Cc4ccccc4)C(=O)N[C@@H](Cc4ccccc4)C(=O)N[C@@H](Cc4ccc(O)cc4)C(=O)O)c4[nH]c(cc5nc(cc1[nH]2)C(C)=C5CC)c(C)c4C(=O)O)[C@@H](CCC(=O)O)[C@@H]3C [Ce6-GFFY]	–	–	accumulated rapidly in the tumor regions	stable aggregation in tumor tissues	noticeable aggregation of Ce6 fluorescence	much higher than Ce6 molecules	over 48 h	did not exert an impact on the hepatic and renal function	did not elicit any significant inflammatory responses	no apparent toxicity	5.3 µM	noticeable aggregation of Ce6 fluorescence	much higher than Ce6 molecules	6.27 µM
